What was measured:
Experiment in all cases: flow cytometry on cells; on-yeast binding titration: single yeast colonies each displaying an IL-6 variant; biotinylated gp130 from 1 μM, eight concentrations in a 1/3 dilution series; apparent KD
[1] = biological target: IL-6 variant Mut1 displayed on yeast (human) (UniProt P05231)
[2] = biological target: IL-6 variant Mut3 displayed on yeast (human) (UniProt P05231)
[3] = biological target: IL-6 variant Mut7 displayed on yeast (human) (UniProt P05231)

Measured: Kd

biotinylated gp130 ectodomain (SD1-SD3, amino acids 23–321), sequence (P40189 23-321): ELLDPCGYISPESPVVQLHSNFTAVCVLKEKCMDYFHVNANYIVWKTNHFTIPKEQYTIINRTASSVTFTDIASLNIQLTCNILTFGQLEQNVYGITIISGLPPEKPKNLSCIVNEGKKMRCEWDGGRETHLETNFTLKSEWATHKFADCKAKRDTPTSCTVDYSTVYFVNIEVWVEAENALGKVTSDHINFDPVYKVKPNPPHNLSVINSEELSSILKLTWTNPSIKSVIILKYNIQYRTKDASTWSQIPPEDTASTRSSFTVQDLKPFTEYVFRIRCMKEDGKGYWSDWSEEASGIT
IL-6 variant Mut7 displayed on yeast (human), sequence (P05231 30-212, change not shown): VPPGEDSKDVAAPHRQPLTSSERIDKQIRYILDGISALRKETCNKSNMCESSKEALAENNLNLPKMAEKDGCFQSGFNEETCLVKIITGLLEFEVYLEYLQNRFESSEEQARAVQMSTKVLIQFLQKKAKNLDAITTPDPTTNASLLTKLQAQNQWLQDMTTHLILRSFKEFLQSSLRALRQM
IL-6 variant Mut3 displayed on yeast (human), sequence (P05231 30-212, change not shown): as above
IL-6 variant Mut1 displayed on yeast (human), sequence (P05231 30-212, change not shown): as above

biotinylated gp130 ectodomain (SD1-SD3, amino acids 23–321) (from UniProt P40189 23-321) (domain or fragment)
2 nM: all assays above
